Experimental data reported in PMC12631009, “Dominant‐Negative Effects of p53 R337 Variants in Li–Fraumeni Syndrome: Impact on Tetramer Formation and Transcriptional Activity” (Chembiochem, 2025).

Molecular target: T1, Biotin-(Aca)2-p53TD (biotin-labeled WT p53 tetramerization domain peptide, residues 319-358) (human, biotin conjugated at the N-terminus with two residues of aminocaproic acid (Aca) as a linker)
T1 construct: p53 tetramerization domain, human, residues 319-358; Held on NeutrAvidin beads in the pull-down; also called Bio-(Aca)2-p53TD; biotin-labeled WT p53TD; source: synthetic peptide (solid-phase synthesis, reverse-phase HPLC purified); not shown: biotin, N-terminal, kept
T1 peptide: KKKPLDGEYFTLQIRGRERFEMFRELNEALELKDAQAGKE
Assay: pull-down; avidin-biotin pull-down: Bio-(Aca)2-p53TD mixed with nonbiotinylated peptide at equimolar concentrations (10 μM) in 50 mM Na phosphate buffer (pH 7.5), 100 mM NaCl; boiled 5 min, cooled to promote hetero-oligomerization; bound to NeutrAvidin beads at 4 °C for 2 h; eluted with 80% acetic acid; peptides quantified by reverse-phase HPLC; result as ratio of peptide pulled down to biotinylated p53TD
Settings: both partners purified

B1: WT p53TD peptide (residues 319-358 of human p53), nonbiotinylated (peptide)
peptide: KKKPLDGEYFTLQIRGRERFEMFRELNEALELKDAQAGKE
notes: p53 tetramerization domain, human, residues 319-358; source: synthetic peptide (solid-phase synthesis, reverse-phase HPLC purified)
- ratio of peptide pulled down to biotinylated p53TD: 0.81
